Test results from IntAct's records for PubMed 24316379.

B1: Interleukin-1 receptor-associated kinase 4 (Homo sapiens), Q9NWZ3 (parent)
chain: MNKPITPSTYVRCLNVGLIRKLSDFIDPQEGWKKLAVAIKKPSGDDRYNQFHIRRFEALLQTGKSPTSELLFDWGTTNCTVGDLVDLLIQNEFFAPASLLLPDAVPKTANTLPSKEAITVQQKQMPFCDKDRTLMTPVQNLEQSYMPPDSSSPENKSLEVSDTRFHSFSFYELKNVTNNFDERPISVGGNKMGEGGFGVVYKGYVNNTTVAVKKLAAMVDITTEELKQQFDQEIKVMAKCQHENLVELLGFSSDGDDLCLVYVYMPNGSLLDRLSCLDGTPPLSWHMRCKIAQGAANGINFLHENHHIHRDIKSANILLDEAFTAKISDFGLARASEKFAQTVMTSRIVGTTAYMAPEALRGEITPKSDIYSFGVVLLEIITGLPAVDEHREPQLLLDIKEEIEDEEKTIEDYIDKKMNDADSTSVEAMYSVASQCLHEKKNKRPDIKKVQQLLQEMTAS

Variants of: B1
Conditions: with MYD88, Q99836-1
Sequence of MYD88, Q99836-1 (Q99836 whole entry): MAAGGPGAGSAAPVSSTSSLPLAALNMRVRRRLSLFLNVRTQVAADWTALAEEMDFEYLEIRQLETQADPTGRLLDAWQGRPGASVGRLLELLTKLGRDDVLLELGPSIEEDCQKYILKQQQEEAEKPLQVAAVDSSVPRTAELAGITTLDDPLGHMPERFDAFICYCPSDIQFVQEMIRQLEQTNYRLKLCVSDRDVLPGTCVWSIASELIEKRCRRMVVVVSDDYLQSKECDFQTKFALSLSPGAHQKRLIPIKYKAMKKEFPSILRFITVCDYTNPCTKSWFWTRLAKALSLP
In the case of R12C, the “effect of a mutation on the interaction” value is reported as “decreasing interaction strength”. With R20W the “effect of a mutation on the interaction” value was “decreasing interaction strength”.

Variants of: B1
Conditions: with MYD88, Q99836-1
Remark: another data set of the same source
For R12C, the “effect of a mutation on the interaction” value was “disrupting interaction strength”.
